Experimental data as given in patent publication US20240067738A1 (ELANCO US, published 2024).

Columns and labels:
[1] = target: T1, Canine IL4R-ECD_C-HuFc_His6 (processed) (canine); assay: BLI (Octet), IL4R-ECD_C-HuFc_His6 on anti-human Fc tips
T1 construct: Whole construct (ECD, linker, human Fc, His6) is one entry
Description: An alternative binding assay was performed also using an Octet Biosensor. Canine IL4R-ECD_C-HuFc_His6 (SEQ ID NO: 109) was captured on anti-human Fc-bound sensor tips. The association of either Clone B or I antibody and canine IL4R-ECD_C-HuFc_His6 was monitored for 600 seconds. Dissociation was monitored for 600 seconds. The buffer for dilutions and all binding steps was 20 mM phosphate, 150 mM NaCl, pH 7.2. […] In addition, amine conjugation may affect the affinity of canine IL4R-ECD_C-His6 to interact with Clone B and I antibodies.

[2] = target: T2, Canine IL4R-ECD_C-His6 (processed) (canine, biotinylated through amine chemistry; sites not stated); assay: BLI (Octet), biotinylated IL4R-ECD_C-His6 on streptavidin tips, 1:1 fit
T2 construct: Whole construct (ECD, linker, His6) is one entry; Captured biotinylated on streptavidin tips or wells
T2 chain: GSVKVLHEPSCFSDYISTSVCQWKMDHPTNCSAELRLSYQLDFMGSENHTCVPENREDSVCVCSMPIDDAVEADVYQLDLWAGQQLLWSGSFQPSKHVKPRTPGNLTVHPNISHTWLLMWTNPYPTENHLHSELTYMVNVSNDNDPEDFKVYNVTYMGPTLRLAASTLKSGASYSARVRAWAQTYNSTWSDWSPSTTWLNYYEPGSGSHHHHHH
Description: The binding analysis was performed using an Octet Biosensor as follows. Briefly, canine IL4R-ECD_C-His6 (SEQ ID NO: 107) was biotinylated through amine chemistry. The free unreacted biotin was removed by extensive dialysis. Biotinylated canine IL4R-ECD_C-His6 was captured on streptavidin sensor tips. The association of either Clone B or I antibody and canine IL4R-ECD_C-His6 (25 μg/mL) was monitored for 600 seconds. Dissociation was monitored for 600 seconds. A buffer only blank curve was subtracted to correct for any drift. The data were fit to a 1:1 binding model using ForteBio™ data analysis software to determine the kₒₙ, koff, and the Kd. The buffer for dilutions and all binding steps was 20 mM phosphate, 150 mM NaCl, pH 7.2.

[3] = target: T3, canine IL4R (Examples 16, 18 and 19; construct not stated) (canine, biotinylated; sites not stated); assay: method not stated
T3 construct: also called Biotinylated canine IL4R; canine IL4R extracellular domains
T3 chain: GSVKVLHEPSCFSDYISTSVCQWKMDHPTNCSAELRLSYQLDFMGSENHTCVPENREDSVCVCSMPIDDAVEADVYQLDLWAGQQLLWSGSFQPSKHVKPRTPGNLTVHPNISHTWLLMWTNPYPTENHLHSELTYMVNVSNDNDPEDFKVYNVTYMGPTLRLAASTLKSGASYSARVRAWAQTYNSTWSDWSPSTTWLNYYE

[4] = target: T3, canine IL4R (Examples 16, 18 and 19; …); assay: BLI (ForteBio OctetRed), biotinylated canine IL4R on streptavidin tip
[5] = target: T1, Canine IL4R-ECD_C-HuFc_His6 (processed); assay: Western blot
[6] = target: Human IL4R-ECD_C-HuFc_His6 (processed) (human); assay: Western blot
[7] = target: T3, canine IL4R (Examples 16, 18 and 19; …); assay: BLI (ForteBio OctetRed)

Sequence of Human IL4R-ECD_C-HuFc_His6 (processed) (human) (chain, as listed by the source limits assumed): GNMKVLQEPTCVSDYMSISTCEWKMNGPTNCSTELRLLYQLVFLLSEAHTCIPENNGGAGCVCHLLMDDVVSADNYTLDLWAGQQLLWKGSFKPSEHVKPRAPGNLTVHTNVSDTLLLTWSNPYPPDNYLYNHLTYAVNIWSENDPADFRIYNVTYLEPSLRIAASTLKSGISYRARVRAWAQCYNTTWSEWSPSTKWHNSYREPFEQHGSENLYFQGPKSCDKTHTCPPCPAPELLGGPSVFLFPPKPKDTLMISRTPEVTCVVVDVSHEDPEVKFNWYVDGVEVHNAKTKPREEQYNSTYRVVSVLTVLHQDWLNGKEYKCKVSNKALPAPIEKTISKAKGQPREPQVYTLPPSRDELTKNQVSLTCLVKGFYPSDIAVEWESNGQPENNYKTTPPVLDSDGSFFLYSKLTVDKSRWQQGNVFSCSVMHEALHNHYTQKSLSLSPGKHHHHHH

| Binder | Kd [3] [nM] | Kd [4] [nM] | Kd [7] [nM] | further results |
| --- | --- | --- | --- | --- |
| Clone B mouse monoclonal antibody (antibody, mouse IgG1, kappa, V domains shown, also called Clone B antibody; anti-IL4R-mAb Clone B) VH: EVKLEESGPELVKPGASVKMSCKASGYTFTSYVMHWVKQKPGQGLEWIGYINPKNDGTFYNGKFKGKATLTSDKSSSTAYMELSSLTSEDSAVYYCAAFNYGIAYWGQGTLVTVSS VL: IVLTQTPSSLSASLGERVSLTCRASQEISGYLSWLQQKPDGTIKRLIYAASTLDSGVPKRFSGSRSGSDFSLTISSLESEDFADYYCVQYASYPWTFGGGARLEIKR | – | – | – | Kd [1]: ~0.1 nM; Kd [2]: 2.03 nM |
| caninized M3 antibody, variable HC v1 with variant canine IgG-B (C1q-, CD16-) and variable LC v1 with canine kappa (antibody, V domains shown, also called caninized M3 HC v1 / LC v1) VH: EVQLVESGGDLVKPAGSLRLSCTVSGFSLSRYSVHWVRQAPGKGLEWLGMIWGGGSTDYNSVVKGRFTISRDNAKNTVYLQMNSLRAEDTAMYYCARTYRGYALDYWGQGTLVTVSS VL: DIVMTQTPLSLSVSPGEPASISCRASQDISNYLNWYLQKAGQSPRLLIYYTSRLQSGVPDRFSGSGSGTDFTLRIGRVEAEDAGIYFCQQANTLPLTFGQGTRLEVRR | ≤ 1 | – | – | – |
| caninized M3 antibody, variable HC v2 with variant canine IgG-B (C1q-, CD16-) and variable LC v1 with canine kappa (antibody, V domains shown, also called caninized M3 HC v2 / LC v1) VH: ELTLQESGPGLVKPSQTLSLTCTVSGFSLSRYSVHWIRQPRGRGLELLGMIWGGGSTDYNPAFQGRISITADTAKNQFSLQLSSMTTEDTAVYYCARTYRGYALDYWGQGTLVTVSS VL: DIVMTQTPLSLSVSPGEPASISCRASQDISNYLNWYLQKAGQSPRLLIYYTSRLQSGVPDRFSGSGSGTDFTLRIGRVEAEDAGIYFCQQANTLPLTFGQGTRLEVRR | ≤ 1 | – | – | – |
| M3 mouse monoclonal antibody (antibody, V domains shown, Mouse antibody purified from hybridoma culture; also called Clone M3) VH: QVQLKESGPGLVAPSQSLSITCTVSGFSLSRYSVHWVRQPPGKGLEWLGMIWGGGSTDYNSVFKSRLSISKDNSKSQVFLKMNSLQTDDTAMYYCARTYRGYALDYWGQGTSVTVSS VL: DIQMTQTTSSLSASLGDRVTISCRASQDISNYLNWYQQKPDGTVKLLIYYTSRLQSGVPSRFSGSGSGTDYCLTISNLEQEDIATYFCQQANTLPLTFGSGTKLELK | – | < 10 | – | binding result [5]: binds; binding result [6]: no binding |
| murine-canine chimeric M5 antibody (canine IgG-B, canine kappa) (antibody, V domains shown, also called chimeric canine IgG-B (M5)) VH: QVQLKESGPGLVAPSQSLSITCTVSGFSLSRYSVHWVRQPPGKGLEWLGMIWGGGSTDYNSVFKSRLSISKDNSKSQVFLKMNSLQTDDTAMYYCARTYRGYALDYWGQGTSVTVSS VL: DIQMTQTTSSLSASLGDRVTISCRASQDISNYLNWYQQKPDGTVKLLIYYTSRLQSGVPSRFSGSGSGTDYCLTISNLEQEDIATYFCQQANTLPLTFGSGTKLELK | – | – | < 10 | – |
| M5 mouse monoclonal antibody (antibody, V domains shown, Mouse antibody purified from hybridoma culture; also called Clone M5) VH: QVQLKESGPGLVAPSQSLSITCTVSGFSLSRYSVHWVRQPPGKGLEWLGMIWGGGSTDYNSVFKSRLSISKDNSKSQVFLKMNSLQTDDTAMYYCARTYRGYALDYWGQGTSVTVSS VL: DIQMTQTTSSLSASLGDRVTISCRASQDISNYLNWYQQKPDGTVKLLIYYTSRLQSGVPSRFSGSGSGTDYCLTISNLEQEDIATYFCQQANTLPLTFGSGTKLELK | – | < 10 | – | – |
| murine-canine chimeric M3 antibody (canine IgG-B, canine kappa) (antibody, V domains shown, also called chimeric canine IgG-B (M3)) VH: QVQLKESGPGLVAPSQSLSITCTVSGFSLSRYSVHWVRQPPGKGLEWLGMIWGGGSTDYNSVFKSRLSISKDNSKSQVFLKMNSLQTDDTAMYYCARTYRGYALDYWGQGTSVTVSS VL: DIQMTQTTSSLSASLGDRVTISCRASQDISNYLNWYQQKPDGTVKLLIYYTSRLQSGVPSRFSGSGSGTDYCLTISNLEQEDIATYFCQQANTLPLTFGSGTKLELK | – | – | < 10 | – |
| M8 mouse monoclonal antibody (antibody, V domains shown, Mouse antibody purified from hybridoma culture; also called Clone M8) VH: QVQLQQSGPELVKPGALVKISCKASGYTFTSYDINWVKQRPGQGLEWIGWIYPGDGSTKYNEKFKGKATLTADKSSSTAYMQLSSLTSEDSAVYFCARSSFVVWGAGTTVTVSS VL: DIQMTQSSSYLSVSLGGRVTITCKASDPINNWLAWYQQKPGNAPRLLISGATSLETGVPSRISGSGSGKDYSLSITSLQTEDIATYYCHQYWSIPYTFGGGTKLEIK | – | < 10 | – | binding result [5]: binds; binding result [6]: no binding |
| murine-canine chimeric M8 antibody (canine IgG-B, canine kappa) (antibody, V domains shown, also called chimeric canine IgG-B (M8)) VH: QVQLQQSGPELVKPGALVKISCKASGYTFTSYDINWVKQRPGQGLEWIGWIYPGDGSTKYNEKFKGKATLTADKSSSTAYMQLSSLTSEDSAVYFCARSSFVVWGAGTTVTVSS VL: DIQMTQSSSYLSVSLGGRVTITCKASDPINNWLAWYQQKPGNAPRLLISGATSLETGVPSRISGSGSGKDYSLSITSLQTEDIATYYCHQYWSIPYTFGGGTKLEIK | – | – | < 10 | – |
| M9 mouse monoclonal antibody (antibody, V domains shown, Mouse antibody purified from hybridoma culture; also called Clone M9) VH: DVQLVESGGGLVQPGGSRKLSCAASGFTFSSFGMHWVRQAPEKGLEWVAYIRSDSSTIYYADTVKGRFTISRDNPKNTLFLQMTSLRSEDTAMYYCARSGYYGSFSLTYWGQGTLVTVSA VL: EIVLTQSPTTMAASPGEKITITCSASSSVSSNYLHWYQQKPGFSPKLLIYRTSNLPSGVPARFFGSGSGTSYSLTIGTMEAEDVATYYCQQGSGMLTFGAGTKLELK | – | < 10 | – | binding result [5]: binds; binding result [6]: no binding |
| murine-canine chimeric M9 antibody (canine IgG-B, canine kappa) (antibody, V domains shown, also called chimeric canine IgG-B (M9)) VH: DVQLVESGGGLVQPGGSRKLSCAASGFTFSSFGMHWVRQAPEKGLEWVAYIRSDSSTIYYADTVKGRFTISRDNPKNTLFLQMTSLRSEDTAMYYCARSGYYGSFSLTYWGQGTLVTVSA VL: EIVLTQSPTTMAASPGEKITITCSASSSVSSNYLHWYQQKPGFSPKLLIYRTSNLPSGVPARFFGSGSGTSYSLTIGTMEAEDVATYYCQQGSGMLTFGAGTKLELK | – | – | < 10 | – |
| caninized M9 antibody, variable HC v1 with variant canine IgG-B (C1q-, CD16-) and variable LC v1 with canine kappa (antibody, V domains shown, also called caninized M9 HC v1 / LC v1) VH: EVQLVESGGDLVKPGGSLRLSCAASGFTFSSFGMHWVRQAPGKGLEWVAYIRSDSSTIYYADAVKGRFTISRDNAKNTLYLQMNSLRAEDTAMYYCARSGYYGSFSLTYWGQGTLVTVSS VL: DIMLTQTPLSLSVSPGEPASISCSASSSVSSNYLHWYLQKAGQSPRLLIYRTSNLPSGVPDRFSGSGSGTDFTLRIGRVEAEDAGIYYCQQGSGMLTFGQGTRLEVRR | ≤ 1 | – | – | – |
| caninized M9 antibody, variable HC v2 with variant canine IgG-B (C1q-, CD16-) and variable LC v1 with canine kappa (antibody, V domains shown, also called caninized M9 HC v2 / LC v1) VH: EVQLVESGGDLVKPGGSLRLSCVASGFTFSSFGMHWVRQAPGKGLQWVAYIRSDSSTIYYADAVKGRFTISRDNAKNTLYLQMNSLRAEDTAMYYCARSGYYGSFSLTYWGQGTLVTVSS VL: DIMLTQTPLSLSVSPGEPASISCSASSSVSSNYLHWYLQKAGQSPRLLIYRTSNLPSGVPDRFSGSGSGTDFTLRIGRVEAEDAGIYYCQQGSGMLTFGQGTRLEVRR | ≤ 1 | – | – | – |
